In article PMC12259950:

Target: 4-1BB receptor (human) (UniProt Q07011)
Assay: ELISA; antigen (4-1BB 0.5 µg/mL in carbonate buffer; BSA or S100P for cross-reactivity) adsorbed on the plate, 37 °C 1 h; blocked with 1% milk powder; culture fluid with VHH mixed 1:1 with 2% milk powder, 1 h 37 °C; detected by 9E10 anti-myc and an HRP conjugate, TMB, 450 nm; 2 technical …

Chain of UniProt Q07011 (Q07011 24-255): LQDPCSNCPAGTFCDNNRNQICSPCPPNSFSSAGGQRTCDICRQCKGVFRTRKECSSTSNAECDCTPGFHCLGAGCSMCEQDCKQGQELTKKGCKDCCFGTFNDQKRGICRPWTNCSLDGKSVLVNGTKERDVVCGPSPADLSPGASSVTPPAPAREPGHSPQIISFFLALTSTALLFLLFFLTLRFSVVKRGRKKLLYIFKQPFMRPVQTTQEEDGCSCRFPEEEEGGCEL

B1: VHH_11 (VHH)
VHH: QVQLVESGGGLVQPGGSLRLSCAASGYSYYYYSMGWFRQAPGQGTEFVAAISSYYYSSYYADSVKGRFTISRDNSKNTLYLQMNSLRAEDTAVYYCAASYYSGSYYSGFDYWGQGTQVTVS
ELISA signal intensity, fold lower than the positive control: 10 fold
